For the data set the following is noted: Bacillus amyloliquefaciens; pH 6.3; 25 °C; Urea; Fluorescence; MES 1.00 M; NaCl 613 mM; reversible: yes; whole UniProt chain shown.

Here are results for one protein from FireProtDB (doi:10.1016/0022-2836(92)90906-z).

B1: Ribonuclease wild type, P00648 (protein)
chain: MMKMEGIALKKRLSWISVCLLVLVSAAGMLFSTAAKTETSSHKAHTEAQVINTFDGVADYLQTYHKLPDNYITKSEAQALGWVASKGNLADVAPGKSIGGDIFSNREGKLPGKSGRTWREADINYTSGFRNSDRILYSSDWLIYKTTDHYQTFTKIR
Consider B1, for which the denaturant m value came to 1.93 kcal/mol/M, the “denaturant midpoint (higher = more stable)” value was found to be 4.57 M and the unfolding free energy is 8.8 kcal/mol.
